The values that follow come from the DeepSol protein solubility set.

This data set in a line: soluble on expression in E. coli; label from the status in PepcDB or PDB records.
With “MSIQKLLSKARKAIQDFDMIQENDKIAVGLSGGKDSLTLLHILKSYQRFSPQNFELIAITLNTGGVDNSPLDKLCKEINVPFYEFQTDIKEIVFDIRQEKNPCALCANLRRGALNDNAKKLGCNKVALGHHKDDAIETFLMSMFYEGRVNCFSPKTYLDRQDLTVIRPMVYIEEYMTKKISKDSNYPIITNPCPANGHTRREYIKNLIANLNKEMPDFKRNVFGALNNSEKLFIWDKEKIKNFK”, the “soluble on expression in E. coli” value was “not soluble”.

Turning to “MSIQQIIEQKIQKEFQPHFLAIENESHLHHSNRGSESHFKCVIVSADFKNIRKVQRHQRIYQLLNEELNHSIHALALHLFTPEEWKAQNETVPHSTKCAGIGRLEHHHHHH”, the “soluble on expression in E. coli” value is “soluble”.

Take “MSIRIDRQRCIGCGKCAEICPGNLIVIDEDKKAFVRDPRDCWGCAACVKECKFSAIRYFLGAEIGGNGTTMYVEKENDEIMYWYFEKPSGEKEMIVQNLKDNTTYLEHHHHHH”: the “soluble on expression in E. coli” value is on record as “not soluble”.

On to “MSISMDRWQGIQHVVVVGLGITGLSVVNYLRKYHPSVTVQVIDTREAPPGQEQLSSDVALHRSGWNLEWLLNADLVVTNPGIALATPEIQQVLAAGIPVVGDIELFAWHVDTPVIAITGSNGKSTVTDLSGVLANAAGVKAAVGGNIGVPALDLISPDVELYVLELSSFQLETTSSLKLKAAAFLNLSEDHMDRYQGMEDYRQAKLRIFDHAETAVVNADDTQTFPDHAAHLQVVTFGVEQAAQFSLAQHQGREYLFARDEAVMACAELSLVGRHNVANVLTVLALLDSAGVNFRLALDALKSYTGLTHRCQVVADNHGIKWVNDSKATNVASTLAALSGLKIEGQLYLLVGGVGKGADFTPLAPVLATLPVQLCCFGVDGHQFMPLHPSARFYDSMESIIRSIRPQLKSGDMVLLSPACASFDQFKNFMARGDIFAQLARQYA”, for which the “soluble on expression in E. coli” value is “not soluble”.

In the case of “MSKEDNNAVVGHQPATKVGGRRIADHGNQRAQNSTNSSDAVREAMDFDLPAKMEKAYPTAAVKQVHEKPTPAIQPAHYNRATGNGQVRNIPQKQNH”, the “soluble on expression in E. coli” value is reported as “not soluble”.

Turning to “MSKEIAKKRIEELRDLLNTFNYQYHVLDNPSVSDAEYDRNMQELIKLEAENPEFMSEDSPSIRVGGTVLDIFEKVTHKSPMLSLGNAFNEGDLRDFDRRVRQGIDDANVRYICELKIDGLAVSLHYEKGRFIQGATRGDGVTGEDITQNLKTIKAIPLRLNEEVTLEARGEAYMPKRSFVKLNEEKEQNGEDVFANPRNAAAGSIRQLDPKIAAKRNLSMFVYGLANVEEKTIPSHSESLDYLGELGFKTNPNRRTCETIEEVIAYVEEWQEKRPHLDYEIDGIVIKVDDVALQESLGTTAKSPRWAIAYKFPAEEVVTRLTGIELSVGRTGVVTPTAELEPVRVAGTIVRRASLHNEDLIREKDIRIGDYVVVKKAGDIIPEVVNVIFDKRTGGEEEYHMPTHCPACESELVRLEEEVALRCINPTCPAQIREGLIHFVSRNAMNIDGLGERVITQLFDADYIRTFADLYSLTKEQLLQLERFGEKSATNLVQAIENSKENSLERLLFGLGIRHVGAKAARTFAEHFETMDALVKATEEELKAINEIGEKMAQSVVAYFDNEDVLELLQQFKEYGVNMTYKGIKIADLQNVESYFAGKTVVLTGKLEVMGRSEAKKKIEALGGKVTGSVSKSTDLVVAGEAAGSKLAQAEKHNVEVWNEERFLQELNK”, the “soluble on expression in E. coli” value is recorded as “soluble”.

Consider “MSKEPRIKILNGQTVQVRKEDHTIMNPLRWCIGKNFTGEKVELVGYTIPHPSDDISNITIQLCDESLQTPPNLLKKLVEGLECMEAIGAKIASEIERSKGGFNK”, for which the “soluble on expression in E. coli” value is recorded as “not soluble”.

Consider “MSKFLDRFRYFKQKGETFADGHGQLLNTNRDWEDGYRQRWQHDKIVRSTHGVNCTGSCSWKIYVKNGLVTWETQQTDYPRTRPDLPNHEPRGCPRGASYSWYLYSANRLKYPMMRKRLMKMWREAKALHSDPVEAWASIIEDADKAKSFKQARGRGGFVRSSWQEVNELIAASNVYTIKNYGPDRVAGFSPIPAMSMVSYASGARYLSLIGGTCLSFYDWYCDLPPASPQTWGEQTDVPESADWYNSSYIIAWGSNVPQTRTPDAHFFTEVRYKGTKTVAVTPDYAEIAKLCDLWLAPKQGTDAAMALAMGHVMLREFHLDNPSQYFTDYVRRYTDMPMLVMLEERDGYYAAGRMLRAADLVDALGQENNPEWKTVAFNTNGEMVAPNGSIGFRWGEKGKWNLEQRDGKTGEETELQLSLLGSQDEIAEVGFPYFGGDGTEHFNKVELENVLLHKLPVKRLQLADGSTALVTTVYDLTLANYGLERGLNDVNCATSYDDVKAYTPAWAEQITGVSRSQIIRIAREFADNADKTHGRSMIIVGAGLNHWYHLDMNYRGLINMLIFCGCVGQSGGGWAHYVGQEKLRPQTGWQPLAFALDWQRPARHMNSTSYFYNHSSQWRYETVTAEELLSPMADKSRYTGHLIDFNVRAERMGWLPSAPQLGTNPLTIAGEAEKAGMNPVDYTVKSLKEGSIRFAAEQPENGKNHPRNLFIWRSNLLGSSGKGHEFMLKYLLGTEHGIQGKDLGQQGGVKPEEVDWQDNGLEGKLDLVVTLDFRLSSTCLYSDIILPTATWYEKDDMNTSDMHPFIHPLSAAVDPAWEAKSDWEIYKAIAKKFSEVCVGHLGKETDIVTLPIQHDSAAELAQPLDVKDWKKGECDLIPGKTAPHIMVVERDYPATYERFTSIGPLMEKIGNGGKGIAWNTQSEMDLLRKLNYTKAEGPAKGQPMLNTAIDAAEMILTLAPETNGQVAVKAWAALSEFTGRDHTHLALNKEDEKIRFRDIQAQPRKIISSPTWSGLEDEHVSYNAGYTNVHELIPWRTLSGRQQLYQDHQWMRDFGESLLVYRPPIDTRSVKEVIGQKSNGNQEKALNFLTPHQKWGIHSTYSDNLLMLTLGRGGPVVWLSEADAKDLGIADNDWIEVFNSNGALTARAVVSQRVPAGMTMMYHAQERIVNLPGSEITQQRGGIHNSVTRITPKPTHMIGGYAHLAYGFNYYGTVGSNRDEFVVVRKMKNIDWLDGEGNDQVQESVK”, for which the “soluble on expression in E. coli” value is listed as “soluble”.

Take “MSKIELKQLSFAYDNQEALLFDQANITMDTNWKLGLIGRNGRGKTTLLRLLQKQLDYQGEILHQVDFVYFPQTVAEEQQLTYYVLQEVTSFEQWKLERELTLLNVDPEVLWRPFSSLSGGEKTKVLLGLLFIEENAFPLIDEPTNHLDLAGRQQVAEYLKKKKHGFILVSHDRAFVDEVVDHILAIEKSQLTLYQGNFSIYEEQKKLRDAFELAENEKIKKEVNRLKETARKKAEWSMNREGDKYGNAKEKGSGAIFDTGAIGARAARVMKRSKHIQQRAETQLAEKEKLLKDLEYIDSLSMDYQPTHHKTLLTVEELRLGYEKNWLFAPISFSINAGEIVGITGKNGSGKSSLIQYLLDNFSGDSEGEATLAHQLTISYVRQDYEDNQGTLSEFAEKNQLDYTQFLNNLRKLGMERAVFTNRIEQMSMGQRKKVEVAKSLSQSAELYIWDEPLNYLDVFNHQQLEALILSVKPAMLVIEHDAHFMKKITDKKIVLKS”: the “soluble on expression in E. coli” value is “not soluble”.

On to “MSKKIKVGIVGATGYTGVELLRLLAAHPDVEVAAVTSRSEAGTAVADYFPSLRGVYGLAFQTPDEAGLEQCDIVFFATPNGIAMKDAPRLIEQGVRVIDLSADFRIRDIPTWEHWYGMTHAAPDLVSQAVYGLSELNREAVAQARLVANPGCYPTCVSLPLVPLLRQCRLKPGMPLIADCKSGVSGAGRKGNVGSLLCEAGDNFKAYGIAGHRHLPEIRQTIAGLQDGIAEGFVFTPHLAPMIRGMHATVYLHLSDGSDPETVLRDYYRDSPFVDILPTGSAPETRSVRGANLCRISIQQAAQSDVWVVLSVIDNLVKGAAGQAVQNMNIMFGLEETHGLDAIPLLP”, for which the “soluble on expression in E. coli” value was “not soluble”.

As to “MSKKPTSAYVHIPFCTQICYYCDFSKVFIQNQPVDAYLKALIQEFDSYGIRDLKTLYIGGGTPTAITAKQLEYLLNHLERNLNLDDLEEFTIEANPGDLTPEKIAVLQRSAVNRISLGVQTFNNKQLKQIGRSHNEEQIYSTIANLKTAGFHNISIDLIYALPGQTLDQVKENVAKALALDIPHLSLYSLILEHHTVFMNKMRRGKLNLPTEDLEAEMFEYIISEMEANGFEH”, the “soluble on expression in E. coli” value is on record as “not soluble”.

For the sequence “MSKLEFLAFYDELTGLPNKNSLIRWLNLKVSQMDCIDTYLIFLEVRDLEKLNVTYGYDLVDELIIHISKRIKDIAGEGNKAFKIGFDRFAIICKSENISDFIERMLSQLLLPYNVNGNLIRVNFNIGAAQIENSNEAAANLMRRCDLALIKAKEEGLNEYVIFKPSIEIQTLEHHHHHH”, the “soluble on expression in E. coli” value is “soluble”.

Regarding “MSKLFGNKSQRDLKEVKPFVDKIKVAYGEIERLSDDDLRGRTAILRQKIQDYVKDERAEIDKLKVEVEGKDLDEREEIWAQVDKLEKEILDKMEVVLDEILPEAFAIIKDTARRFAQNETIRVKATDLDRDLAINHDFVSIEGDTAVYQNHWVAGGNEILW”, the “soluble on expression in E. coli” value is on record as “not soluble”.

“MSKLPMLSQNPENIKILHTAADFRYELLKQIENAQQRIYIVALYLENDDAGREIFTALYEAKQKNPTLDINVLVDWHRAQRGLIGAEKSDGNAALYREFSEKYEHSINVLGVPVRNKEVFGVLHLKGFIFDDTVVYSGASLNDVYLAHKDKYRFDRYHVLNNALLANSMVSFIKKTLIASPAVNCLSQQNRPDTKSLKPEIKELRKQLGLANYQFTSQTRKEGEVGITPLVGLGRKGNKLNNYIRTLLASATSEITICTPYFNFPKPIAKELKKALRRGVKVTIIVGDKTANDFYISPEEEFKTIAGLPYLYEINLRNFAKANETYIASRQLSLNLWKHENNSFHLKGMWVDKEYTLITGSNLNPRAWKLDLENGLLLQDPEQLLVDTKQAELDVILEHTQLIGSYKQVDKLDSYPVEVKKLIKRIKRIKADHILNQILLEHHHHHH”: the “soluble on expression in E. coli” value is “soluble”.

On to “MSKLSIRNLTKIFGPHPEKALGLLEQGLGKEEIHRRTSHAVGVDRASFDVEEGEIVVVMGLSGSGKSTLVRCLNRLIEPTAGTVTVDGRDVTSMPVDELRRLRQRSFGMVFQNFALFPHRTVLQNAAFGLEAMGVPRAERERQAMVSLERVGLAEWAASRPAQLSGGMQQRVGLARALSLDPDILLMDEAFSALDPLIRRDMQDELLRLQDDLQKTIVFISHDLDEALKLGDRIVLMRDGAVVQIGTPEDILTNPADDYVARFVGEADVTKVLTAGSVMKRSEAVAVLGIDGPRTALRKMRRNAIATLFVLDERHRLVGLITADDAARLAAEGVRELGSIVRRDIATVPPEAPATELISLMADLPHPLAVVDERGRLAGVIVRGLLLGALAERGGVALEHHHHHH”, for which the “soluble on expression in E. coli” value is listed as “not soluble”.

Turning to “MSKNERMVGISRRTLVKSTAIGSLALAAGGFSLPFTLRNAAAAVQQAREKVVWGACSVNCGSRCALRLHVKDNEVTWVETDNTGSDEYGNHQVRACLRGRSIRRRINHPDRLNYPMKRVGKRGEGKFERISWDEALDTIASSLKKTVEQYGNEAVYIQYSSGIVGGNMTRSSPSASAVKRLMNCYGGSLNQYGSYSTAQISCAMPYTYGSNDGNSTTDIENSKLVVMFGNNPAETRMSGGGITYLLEKAREKSNAKMIVIDPRYTDTAAGREDEWLPIRPGTDAALVAGIAWVLINENLVDQPFLDKYCVGYDEKTLPADAPKNGHYKAYILGEGDDKTAKTPQWASQITGIPEDRIIKLAREIGTAKPAYICQGWGPQRQANGELTARAIAMLPILTGNVGISGGNSGARESTYTITIERLPVLDNPVKTSISCFSWTDAIDHGPQMTAIRDGVRGKDKLDVPIKFIWNYAGNTLVNQHSDINKTHEILQDESKCEMIVVIENFMTSSAKYADILLPDLMTVEQEDIIPNDYAGNMGYLIFLQPVTSEKFERKPIYWILSEVAKRLGPDVYQKFTEGRTQEQWLQHLYAKMLAKDPALPSYDELKKMGIYKRKDPNGHFVAYKAFRDDPEANPLKTPSGKIEIYSSRLAEIARTWELEKDEVISPLPVYASTFEGWNSPERRTFPLQLFGFHYKSRTHSTYGNIDLLKAACRQEVWINPIDAQKRGIANGDMVRVFNHRGEVRLPAKVTPRILPGVSAMGQGAWHEANMSGDKIDHGGCVNTLTTLRPSPLAKGNPQHTNLVEIEKI”, the “soluble on expression in E. coli” value is “soluble”.
